According to the DeepSol protein solubility set:

Assay: soluble on expression in E. coli; label from the status in PepcDB or PDB records

Sequence | soluble on expression in E. coli
MGSDKIHHHHHHMTNFPPLLLAYGLDLEGPIHRGIATYAKAMIRLLHQSGYPLHLLTGAGGLAQGRLASLSLHRHLDQPSNWSRIQLAQSYFAERLGRSRQTPIKVDSNLIIGDRIQYLQQIDQLINHPFFYRKLRLQAKISDRPFFLKTKNYPVVLTSSPLNLRVSSSSRLIQVIHDLIPLNYLRHPDEAVTFLRRLQATADYSDRIICLSETTRQQFLELFPQAESRTLTLYQPVSFSAEALALTDRPDFAAAVLRRYGLERDRYFFFVGAIEPRKNLETLIAAQQVAVLRTQLPLVIGGTADVHTQDYAQQLQQRSRSTDQILWTGYLTEAEKICLLRHCRALTFLSWQEGFGIPMIEAALCGRSSLLANIPVLREVMGAAATYANPQHPLEVADQLIQLGCYPAQLSELRSRATQQIQAFADGQVQQQIQQVLQSLIS | not soluble
DGKRVWLSDDELTRFIEQAETPHQRLAFLLAGRVGLRRSEIIEVCPQDLVDGPTGDHIRVWESYAKRDKYREPPVPQEVVTIAETLAYQQDDDEPLLDVAGSTVYRWVRRAADELEEETGDRGWQYLDVHDLRRTWGTYLLEQGVIPSVVMSFGGWEDWDTFRKHYLGEFS | soluble
MTALEVLGGWPVPAAAAAVIGPAGVLATHGDTARVFALASVTKPLVARAAQVAVEEGVVNLDTPAGPPGSTVRHLLAHTSGLAMHSDQALARPGTRRMYSNYGFTVLAESVQRESGIEFGRYLTEAVCEPLGMVTTRLDGGPAAAGFGATSTVADLAVFAGDLLRPSTVSAQMHADATTVQFPGLDGVLPGYGVQRPNDWGLGFEIRNSKSPHWTGECNSTRTFGHFGQSGGFIWVDPKADLALVVLTARDFGDWALDLWPAISDAVLAEYTLEHHHHHH | soluble
TATRVRPREYALRYPYMQVNRPGMVSWLVFDLDHANALAWDDAGLPAPNLMVRNRKSGHSQLFYAVPSVCTTENARTKPIQYMKAIYAAFAARLDADVDYHGGPVAKTPGHPWWETTEFHSHVYELGELASAVELTVKPWATGPKLDQVSHSRHCILFEQLRYFAYSIVNRERELGSFESFMRSLDAYAYNHNSFLKQGFSENLPLSSIRATVKSVGRWTWDRYTGDRRCHRGAMQLDGSLSLTERQSLAAKRTNELRH | not soluble
MLAAAHKAGGTFAAESILILRNRLSGVADILADFPDDVPVYVAEAPVLDGIVGFHLHRGILALGRRVRDDGLEQMTAALPASSLVLVGCGISNHDNLGAMFRNAAAFYADAVLLDETCCDPLYRKALRVSVGSVLSVPYHRGGGAVEMLERLSEEGFAIWGLSPDGKTEIRDIPRSERMALVIGTEGEGLPQSVLSRFQTARIAQSPQVDSLNAGTASGLALYQMAGVMGRV | not soluble
MESLASLYKNHIATLQERTRDALARFKLDALLIHSGELFNVFLDDHPYPFKVNPQFKAWVPVTQVPNCWLLVDGVNKPKLWFYLPVDYWHNVEPLPTSFWTEDVEVIALPKADGIGSLLPAARGNIGYIGPVPERALQLGIEASNINPKGVIDYLHYYRSFKTEYELACMREAQKMAVNGHRAAEEAFRSGMSEFDINIAYLTATGHRDTDVPYSNIVALNEHAAVLHYTKLDHQAPEEMRSFLLDAGAEYNGYAADLTRTWSAKSDNDYAQLVKDVNDEQLALIATMKAGVSYVDYHIQFHQRIAKLLRKHQIITDMSEEAMVENDLTGPFMPHGIGHPLGLQVHDVAGFMQDDSGTHLAAPAKYPYLRCTRILQPGMVLTIEPGIYFIESLLAPWREGQFSKHFNWQKIEALKPFGGIRIEDNVVIHENNVENMTRDLKLA | soluble
MGSDKIHHHHHHMKEIINLDEMIMLLKTIAESSRLRLLALLYHEDLTVSDFTLVLGQSQSHVLQHLHLLYEAQLVERYQKGRSIYFKLYYGRLGKDIVMAVVSALLEHNRVIAHDLARLKDIKKQYRKQEKKYFLQNVVQWDTLRLFSIADLGVENALREIVGDKPFETMLDISRDTGSVLKLFSGLYTYAVEVVLDSDILHLSVENTTFDLVILHWVLYFLESPEVALHEIAGVLRPHGRLLIVDFVRHEVESSHSYLSHMPFGFSDLQIEQWLKNVGLILEKIICFPPLQNENNERLMVKIWLARDPRLLVDDIKDKKVEFA | not soluble
MDEEGASVVITIKNEAKNIQKLLDSLFNNDYEHFEVVVVDDMSNDGTEGIVKKYDKVKYIRTRCSRGEGRNIGAMNSSFENILFTDGDAIVSNGWIGGMVSVLNNGFEIAIGKTVYTGKKRYIQDRVKIYFNGIEITAPSVNLAYKKRAFFSLGGFDKRFVTAEDIDLNLRAAMSGFKFGFCNECVVYAKVRDSFISFLKQAFWNGYGRAQLEEKHPGMLKKTDIRLGHNFYDFMHMSAGAAGYLLYKLR | soluble
MGSDKIHHHHHHMHMLLSERISLMIRGGYVGRNPNTGKLQQHLQNGYERLQKGDLDAKRFDGAESTAHSMAIIGCSGSGKTTSLRRILNTYPQVIFHPTLNRHQIVYLKIDCSHDGSLKELCLNFFRAIDKVIGSNYEKKYGMKRHGVETMLALMAQTANMFALGLLVIDEIQHLSRAKSGGSEKMLNFFVTMSNTIGIPVLFVGTPKARDIFDLDLRSSRRAAGLGSIFWNPISQYLPDQKSQNPEWIAFTNTLWKLQYLQKRDPILSDEIRDTWFDLSQGILDIVVKLFILAQLRALATGAEKITVELLKRVYEDELKLVHPMLSALRSGIPERIAQFSDLAVPDMDKKIIHLIQKISASTVESEEDRALKQLSNDDQRRIYLMLKDEFPSDSIIFAIQKIVELKPQISRQQLLASIIQAMETDNTTSQVTVTKKKNQRIGLKQWNELEDTDLRHIFSMNSTSPESIYTQLNHHGLILQMSDLLS | not soluble
MSLAPSTYYDAKTRPPSARAQRDAVLGPALRQLWKDNYCVYGAHKLWKTARRAGYDVGRDQVARLMRAAGIQGVRRGKRVRTTKPDPVAARHPDLVKRKFTATAPNQLWVTDLTFVPTWAGVAYVCFIVDAHSRMIVGWRVASHMRTSMVLDALEMARWSRGTTLQNLICHSDAGSQFTSIRYGERLAEIGGVPSIGTVGDSFDNALAETVNGYYKAELIYGPARSGPWKTVEDVELATLSWVYWHNTSRLHSYLGDLPPAEFEAAFYDASRSGQPLVEIQEGHHHHHH | soluble
MTLSFRVNPEYAAMSEIVPGLFICGVSALSKDEMKKHKITHIINATTEVPNLRSLGDIQRTKLWLEDTPQTYIYPHLELQSDQIQALIADGGKVLVHCVAGVSRSASICLAFLLKYRCRNLREAYHLMKSKRSMVRPNLGFWRQLIAYEQNVKENAGSVRLVRDEAQPEQLLPDVYLNIAIPARPASPEQDPNMIPDEPRERRNSGFKSKFRPVLEPVMEMAEAVC | not soluble
MGSDKIHHHHHHMKYILVTGGVISGIGKGVIASSVGTILKSCGLHVTSIKIDPYINIDAGTFSPYEHGEVFVLDDGGEVDLDLGNYERFLDIRLTKDNNLTTGKIYQYVINKERKGDYLGKTVQVVPHITDAIQEWVMRQALIPVDEDGLEPQVCVIELGGTVGDIESMPFIEAFRQFQFKVKRENFCNIHVSLVPQPSSTGEQKTKPTQNSVRELRGLGLSPDLVVCRCSNPLDTSVKEKISMFCHVEPEQVICVHDVSSIYRVPLLLEEQGVVDYFLRRLDLPIERQSRKMLMKWKEMADRYDRLLETCSIALVGKYTKFSDSYASVIKALEHSALAINHKLEIKYIDSTDLEPSTLQEEPVRYHEAWQKLCSAHGVLVPGGFGVRGTEGKIQAIAWARKQKKPFLGVCLGMQLAVVEFSRNVLGWQDANSTEFDPKTSHPVVIDMPEHNPGQMGGTMRLGKRRTLFQTKNSVMRKLYGDTDYLEERHRHRFEVNPVLKKCLEEQGLKFVGQDVEGERMEIVELEDHPFFVGVQYHPEFLSRPIKPSPPYFGLLLASVGRLPHYLQKGCRLSPRDTYSDRSGSSSPDSEITELKFPSISQD | not soluble
MTENLLAERHALRWVFLYEFPQICNCNEARRNMCAVLGKNSVTYNTMKFWFEKFTKKNYDLDDKPR | soluble
MGSDKIHHHHHHMMELINNRGMRDWMIFIKVAEVGNLSRAARELDISISAVSKSLSRLENSIEVTLLRRDSHHLELTGAGQTAYASMKRITSSFQSLLDELRNPDKIIRGSIKFSAPAIVCEFLANKWIWEFTASYPDTKIYLDSRERSDFFSKSLEFDELVFKSGIIESEDLVYRKISPLKLVLCASPKYIRKYGRISHPGDLENHIIVGLHNHGLSGPLTLFRQDESYTISGAVNVHLSSNNLLSVLNLVLEGKGINLMTPAWLATKYLKNNELEIILPEWRVPDLPIYLVWRHRQYYSPLFQRFLSFIEDKWNNRPQIDFLNDD | not soluble
MGSDKIHHHHHHMKPNNWVSSSQATELLSKQLVTWPLAEKNYKALEAVQVKSFDMGGFSIRAQFNPARIVSTGAKVDARSLKERKCFLCPENLPVEQERLPFGFRHLVLCNPYPIFPQHFTIPTRKHTPQLILPQWNDFLELTRRLAPFTVFYNGPRSGASAPDHAHFQAVTRGIMPLDEEVTQFIRQSYASVYDNRIYPLTGNLRPGLVIQAATEEAATRLFKKIYAALPILPGEPEPMMNIFGSYYDNNWVITVIPRKRHRPWQYEAEGNDHLLSSPGAADIGGLFITPLEKDFKKINPELLRDVYQQVCLNDRDVEEIFVHLSSN | not soluble
MGSDKIHHHHHHDKMNKNTGALQFDSIQVNETAHLFNDTAKPACNIIINFAYPVKSSDDMLKDSLNAYFISVCFGDKYIGEKPEAVVKQYAKNYIDEYRHDQEPMYAEDEKNKESDAVVGAWYSYYKSIESHVQLYEKDLLVYRVDYNEYTGGAHGMYMSTFLNMDLTLMRPLRLDDIFVGDFQEALTDLIWNQLMADNKVTTHEALEDMGYASTGDIAPTENFYLSKEGITFYYNIYDITPYSMGPVKVTIPYSMMEHLLGSNPILGDLKD | not soluble
MDTIWELDFYSRPLVDENNKKIWELLVCDRQQQFQFSKTCAGAEANARWLAAALEEAMDQWRQQLGLAEGVQPQRVRFFRRAMSSIITRGGEAAGLVMVPSRRTFALYDWLRDRATNFYPTLPNYQADLATPPQLPPPAPQPLPPALQGDRWQLSGLPLGEIKTAAEWELPFGEVPPLPFLTLNDDTLLPGLIIYSQRALPLAGWLSGLEPASLSFEETPQPLLILETGASDRWILIRGRNPQIQKELAAFKDACTQSQGLHFIAVKEQPTQETLQGFWLLQQTPELLEHHHHHH | soluble
SMSEHSAIVTWKRKDSEAFTDNQYSRAHTWEFDGGSKILASASPHVVPVPLSVEANVDPEEAFVAALSSCHMLVFLSIAAKQRYLVESYTDNAVGILGKNSKGKTSVTKVVLRPQVVFSGTSKPTLQQLEKMHHLAHENCFIANSVETEVVTEII | soluble
MPGLEKTRIVDPILTNVAIGYKNAEYVGESLFPVVPVDKEQGKIPKWGAEAFRIYNTRRQIRSKTNRIEMDATTVPYSLEEEALEAPIDDRELEEAAEVLKLEMSRTKMLTDNIRLKMEKDQADVAQNVANYSPGHVEALSGTDKFSDPASKPIDVIGDARATVRSKIGIYPNVLLMGASVYEVLKNHSAIIDKIKYSQKGIATPTCSQKSST | not soluble
MGSDKIHHHHHHMVIAVRRILIREEYCMGCKLCEINCVAAQVGTGNLIKVYRYVPELPEPNVIVEEHDYVTFALQCRNCDDPSCLKACMTGAMHRDPKTGAIRVNQEKCVGCWMCVMACPFGVIRRNTKEKKVASKCDLCADRGTPGCVEGCPNEALVLVEVRE | not soluble
